The labels stand for the following.
B1: Azoarcus group I ribozyme (parent)
chain: GUGCCUUGCGCCGGGAAACCACGCAAGGGAUGGUGUCAAAUUCGGCGAAACCUAAGCGCCCGCCCGGGCGUAUGGCAACGCCGAGCCAAGCUUCGGCGCCUGCGCCGAUGAAGGUGUAGAGACUAGACGGCACCCACCUAAGGCAAACGCUAUGGUGAAGGCAUAGUCCAGGGAGUGGCGAAAGUCACACAAACCGG

The data set covers variants of B1. The experiment in a line: reverse-splicing fitness (ratio to wild type); higher = more active; in vitro selection; Mg2+ level not given. An outline of the steps: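 An in vitro group I ribozyme library with randomized positions was T7-transcribed and gel-purified. In triplicate, 10 pmol RNA in EPPS pH 7.5 was reacted with 50 pmoles of a 30-nt RNA substrate for 1 h at 37 °C across several added MgCl2 levels (1–48 mM), then stopped with EDTA. Products were reverse transcribed from a substrate-complementary primer, PCR-amplified and sequenced (HiSeq 4000). Fitness is a variant's read proportion after selection over that before, normalised to wild type.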
Take GUGCCUUGCGCCGGGAAACCACGCAAGGGAUGGUGUCAAAUUCGGCGAAACCUAAGCGCCCGCCCGGGCGUAUGGCAACGCCGAGCCAAGCUUCGGCGCCUGCGCCGAUGCAGGUGUAGCGACUAGACGGCACCCACCUAAGGCUAACGGUAUGGUGAAGGCAUAGUCUAGGGAGUGGCGAAAGUCACACAAACCGG: the reverse-splicing fitness worked out at 0.0234. As for GUGCCUUGCGCCGGGAAACCACGCAAGGGAUGGUGUCAAAUUCGGCGAAACCUAAGCGCCCGCCCGGGCGUAUGGCAACGCCGAGCCAAGCUUCGGCGCCUGCGCCGAUGCAGGUGUAGCGACUAGACGGCACCCACCUAAGGCUAACGGUAUGGUGAAGGCAUAGUCAAGGGAGUGGCGAAAGUCACACAAACCGG, the figure is 0.00797. With GUGCCUUGCGCCGGGAAACCACGCAAGGGAUGGUGUCAAAUUCGGCGAAACCUAAGCGCCCGCCCGGGCGUAUGGCAACGCCGAGCCAAGCUUCGGCGCCUGCGCCGAUGCAGGUGUAGCGACUAGACGGCACCCACCUAAGGCUAACGGUAUGGUGAAGGCAUAGUCGAGGGAGUGGCGAAAGUCACACAAACCGG, the reverse-splicing fitness came out at 0.00671.

For GUGCCUUGCGCCGGGAAACCACGCAAGGGAUGGUGUCAAAUUCGGCGAAACCUAAGCGCCCGCCCGGGCGUAUGGCAACGCCGAGCCAAGCUUCGGCGCCUGCGCCGAUGCAGGUGUAGCGACUAGACGGCACCCACCUAAGGCUAACGGUAUGGUGAAGGCAUAGUCCAGGGAGAGGCGAAAGUCACACAAACCGG, the reverse-splicing fitness is 0.0202. For GUGCCUUGCGCCGGGAAACCACGCAAGGGAUGGUGUCAAAUUCGGCGAAACCUAAGCGCCCGCCCGGGCGUAUGGCAACGCCGAGCCAAGCUUCGGCGCCUGCGCCGAUGCAGGUGUAGCGACUAGACGGCACCCACCUAAGGCUAACGGUAUGGUGAAGGCAUAGUCCAGGGAGGGGCGAAAGUCACACAAACCGG, the reverse-splicing fitness came to 0.00607. Then GUGCCUUGCGCCGGGAAACCACGCAAGGGAUGGUGUCAAAUUCGGCGAAACCUAAGCGCCCGCCCGGGCGUAUGGCAACGCCGAGCCAAGCUUCGGCGCCUGCGCCGAUGCAGGUGUAGCGACUAGACGGCACCCACCUAAGGCUAACGGUAUGGUGAAGGCAUAGUCCAGGGAGCGGCGAAAGUCACACAAACCGG, with 0.034; and GUGCCUUGCGCCGGGAAACCACGCAAGGGAUGGUGUCAAAUUCGGCGAAACCUAAGCGCCCGCCCGGGCGUAUGGCAACGCCGAGCCAAGCUUCGGCGCCUGCGCCGAUGCAGGUGUAGCGACUAGACGGCACCCACCUAAGGCUAACGUUAUGGUGAAGGCAUAGUCGAGGGAGCGGCGAAAGUCACACAAACCGG, with 0.0132; and GUGCCUUGCGCCGGGAAACCACGCAAGGGAUGGUGUCAAAUUCGGCGAAACCUAAGCGCCCGCCCGGGCGUAUGGCAACGCCGAGCCAAGCUUCGGCGCCUGCGCCGAUGCAGGUGUAGCGACUAGACGGCACCCACCUAAGGCUAACGUUAUGGUGAAGGCAUAGUCGAGGGAGAGGCGAAAGUCACACAAACCGG, with 0.0128. As for GUGCCUUGCGCCGGGAAACCACGCAAGGGAUGGUGUCAAAUUCGGCGAAACCUAAGCGCCCGCCCGGGCGUAUGGCAACGCCGAGCCAAGCUUCGGCGCCUGCGCCGAUGCAGGUGUAGCGACUAGACGGCACCCACCUAAGGCUAACGUUAUGGUGAAGGCAUAGUCGAGGGAGGGGCGAAAGUCACACAAACCGG, the figure is 0.00667; as for GUGCCUUGCGCCGGGAAACCACGCAAGGGAUGGUGUCAAAUUCGGCGAAACCUAAGCGCCCGCCCGGGCGUAUGGCAACGCCGAGCCAAGCUUCGGCGCCUGCGCCGAUGCAGGUGUAGCGACUAGACGGCACCCACCUAAGGCUAACGUUAUGGUGAAGGCAUAGUCGAGGGAGUGGCGAAAGUCACACAAACCGG, 0.00917. Consider GUGCCUUGCGCCGGGAAACCACGCAAGGGAUGGUGUCAAAUUCGGCGAAACCUAAGCGCCCGCCCGGGCGUAUGGCAACGCCGAGCCAAGCUUCGGCGCCUGCGCCGAUGCAGGUGUAGCGACUAGACGGCACCCACCUAAGGCUAACGUUAUGGUGAAGGCAUAGUCUAGGGAGUGGCGAAAGUCACACAAACCGG, for which the reverse-splicing fitness came to 0.125. With GUGCCUUGCGCCGGGAAACCACGCAAGGGAUGGUGUCAAAUUCGGCGAAACCUAAGCGCCCGCCCGGGCGUAUGGCAACGCCGAGCCAAGCUUCGGCGCCUGCGCCGAUGCAGGUGUAGCGACUAGACGGCACCCACCUAAGGCUAACGUUAUGGUGAAGGCAUAGUCAAGGGAGUGGCGAAAGUCACACAAACCGG, the reverse-splicing fitness is 0.0112. Consider GUGCCUUGCGCCGGGAAACCACGCAAGGGAUGGUGUCAAAUUCGGCGAAACCUAAGCGCCCGCCCGGGCGUAUGGCAACGCCGAGCCAAGCUUCGGCGCCUGCGCCGAUGCAGGUGUAGCGACUAGACGGCACCCACCUAAGGCUAACGGUAUGGUGAAGGCAUAGUCAAGGGAGGGGCGAAAGUCACACAAACCGG, for which the reverse-splicing fitness came out at 0.00619. Then GUGCCUUGCGCCGGGAAACCACGCAAGGGAUGGUGUCAAAUUCGGCGAAACCUAAGCGCCCGCCCGGGCGUAUGGCAACGCCGAGCCAAGCUUCGGCGCCUGCGCCGAUGCAGGUGUAGCGACUAGACGGCACCCACCUAAGGCUAACGGUAUGGUGAAGGCAUAGUCAAGGGAGCGGCGAAAGUCACACAAACCGG, with 0.00906. Consider GUGCCUUGCGCCGGGAAACCACGCAAGGGAUGGUGUCAAAUUCGGCGAAACCUAAGCGCCCGCCCGGGCGUAUGGCAACGCCGAGCCAAGCUUCGGCGCCUGCGCCGAUGCAGGUGUAGCGACUAGACGGCACCCACCUAAGGCUAACGGUAUGGUGAAGGCAUAGUCAAGGGAGAGGCGAAAGUCACACAAACCGG, for which the reverse-splicing fitness worked out at 0.0107. With GUGCCUUGCGCCGGGAAACCACGCAAGGGAUGGUGUCAAAUUCGGCGAAACCUAAGCGCCCGCCCGGGCGUAUGGCAACGCCGAGCCAAGCUUCGGCGCCUGCGCCGAUGCAGGUGUAGCGACUAGACGGCACCCACCUAAGGCUAACGUUAUGGUGAAGGCAUAGUCUAGGGAGAGGCGAAAGUCACACAAACCGG, the reverse-splicing fitness worked out at 0.028. Turning to GUGCCUUGCGCCGGGAAACCACGCAAGGGAUGGUGUCAAAUUCGGCGAAACCUAAGCGCCCGCCCGGGCGUAUGGCAACGCCGAGCCAAGCUUCGGCGCCUGCGCCGAUGCAGGUGUAGCGACUAGACGGCACCCACCUAAGGCUAACGUUAUGGUGAAGGCAUAGUCUAGGGAGGGGCGAAAGUCACACAAACCGG, the reverse-splicing fitness is 0.00661. Consider GUGCCUUGCGCCGGGAAACCACGCAAGGGAUGGUGUCAAAUUCGGCGAAACCUAAGCGCCCGCCCGGGCGUAUGGCAACGCCGAGCCAAGCUUCGGCGCCUGCGCCGAUGCAGGUGUAGCGACUAGACGGCACCCACCUAAGGCUAACGUUAUGGUGAAGGCAUAGUCUAGGGAGCGGCGAAAGUCACACAAACCGG, for which the reverse-splicing fitness amounted to 0.0374. Then GUGCCUUGCGCCGGGAAACCACGCAAGGGAUGGUGUCAAAUUCGGCGAAACCUAAGCGCCCGCCCGGGCGUAUGGCAACGCCGAGCCAAGCUUCGGCGCCUGCGCCGAUGCAGGUGUAGCGACUAGACGGCACCCACCUAAGGCUAACGAUAUGGUGAAGGCAUAGUCCAGGGAGGGGCGAAAGUCACACAAACCGG, with 0.00986; and GUGCCUUGCGCCGGGAAACCACGCAAGGGAUGGUGUCAAAUUCGGCGAAACCUAAGCGCCCGCCCGGGCGUAUGGCAACGCCGAGCCAAGCUUCGGCGCCUGCGCCGAUGCAGGUGUAGCGACUAGACGGCACCCACCUAAGGCUAACGGUAUGGUGAAGGCAUAGUCUAGGGAGGGGCGAAAGUCACACAAACCGG, with 0.00656; and GUGCCUUGCGCCGGGAAACCACGCAAGGGAUGGUGUCAAAUUCGGCGAAACCUAAGCGCCCGCCCGGGCGUAUGGCAACGCCGAGCCAAGCUUCGGCGCCUGCGCCGAUGCAGGUGUAGCGACUAGACGGCACCCACCUAAGGCUAACGGUAUGGUGAAGGCAUAGUCUAGGGAGCGGCGAAAGUCACACAAACCGG, with 0.0173. Then GUGCCUUGCGCCGGGAAACCACGCAAGGGAUGGUGUCAAAUUCGGCGAAACCUAAGCGCCCGCCCGGGCGUAUGGCAACGCCGAGCCAAGCUUCGGCGCCUGCGCCGAUGCAGGUGUAGCGACUAGACGGCACCCACCUAAGGCUAACGGUAUGGUGAAGGCAUAGUCUAGGGAGAGGCGAAAGUCACACAAACCGG, with 0.00997.

Turning to GUGCCUUGCGCCGGGAAACCACGCAAGGGAUGGUGUCAAAUUCGGCGAAACCUAAGCGCCCGCCCGGGCGUAUGGCAACGCCGAGCCAAGCUUCGGCGCCUGCGCCGAUGCAGGUGUAGCGACUAGACGGCACCCACCUAAGGCUAACGUUAUGGUGAAGGCAUAGUCAAGGGAGAGGCGAAAGUCACACAAACCGG, the reverse-splicing fitness worked out at 0.012.

For GUGCCUUGCGCCGGGAAACCACGCAAGGGAUGGUGUCAAAUUCGGCGAAACCUAAGCGCCCGCCCGGGCGUAUGGCAACGCCGAGCCAAGCUUCGGCGCCUGCGCCGAUGCAGGUGUAGCGACUAGACGGCACCCACCUAAGGCUAACGUUAUGGUGAAGGCAUAGUCAAGGGAGCGGCGAAAGUCACACAAACCGG, the reverse-splicing fitness came to 0.00838. As for GUGCCUUGCGCCGGGAAACCACGCAAGGGAUGGUGUCAAAUUCGGCGAAACCUAAGCGCCCGCCCGGGCGUAUGGCAACGCCGAGCCAAGCUUCGGCGCCUGCGCCGAUGCAGGUGUAGCGACUAGACGGCACCCACCUAAGGCUAACGUUAUGGUGAAGGCAUAGUCAAGGGAGGGGCGAAAGUCACACAAACCGG, the figure is 0.00715. As for GUGCCUUGCGCCGGGAAACCACGCAAGGGAUGGUGUCAAAUUCGGCGAAACCUAAGCGCCCGCCCGGGCGUAUGGCAACGCCGAGCCAAGCUUCGGCGCCUGCGCCGAUGCAGGUGUAGCGACUAGACGGCACCCACCUAAGGCUAACGGUAUGGUGAAGGCAUAGUCCAGGGAGUGGCGAAAGUCACACAAACCGG, the figure is 0.0621; as for GUGCCUUGCGCCGGGAAACCACGCAAGGGAUGGUGUCAAAUUCGGCGAAACCUAAGCGCCCGCCCGGGCGUAUGGCAACGCCGAGCCAAGCUUCGGCGCCUGCGCCGAUGCAGGUGUAGCGACUAGACGGCACCCACCUAAGGCUAACGUUAUGGUGAAGGCAUAGUCCAGGGAGUGGCGAAAGUCACACAAACCGG, 0.415; as for GUGCCUUGCGCCGGGAAACCACGCAAGGGAUGGUGUCAAAUUCGGCGAAACCUAAGCGCCCGCCCGGGCGUAUGGCAACGCCGAGCCAAGCUUCGGCGCCUGCGCCGAUGCAGGUGUAGCGACUAGACGGCACCCACCUAAGGCUAACGGUAUGGUGAAGGCAUAGUCGAGGGAGAGGCGAAAGUCACACAAACCGG, 0.00752. Consider GUGCCUUGCGCCGGGAAACCACGCAAGGGAUGGUGUCAAAUUCGGCGAAACCUAAGCGCCCGCCCGGGCGUAUGGCAACGCCGAGCCAAGCUUCGGCGCCUGCGCCGAUGCAGGUGUAGCGACUAGACGGCACCCACCUAAGGCUAACGGUAUGGUGAAGGCAUAGUCGAGGGAGGGGCGAAAGUCACACAAACCGG, for which the reverse-splicing fitness worked out at 0.00591. Then GUGCCUUGCGCCGGGAAACCACGCAAGGGAUGGUGUCAAAUUCGGCGAAACCUAAGCGCCCGCCCGGGCGUAUGGCAACGCCGAGCCAAGCUUCGGCGCCUGCGCCGAUGCAGGUGUAGCGACUAGACGGCACCCACCUAAGGCUAACGGUAUGGUGAAGGCAUAGUCGAGGGAGCGGCGAAAGUCACACAAACCGG, with 0.00645.

For the origin of these results see the RNAGym collection of RNA variant scans (doi:10.1093/molbev/msab373).
